Key:
[1] = target: T1, Human Neutrophil Elastase (human, UniProt P08246); experiment: pH elution of display phage from hNE beads, abbreviated protocol
Text: (§1) Total pfu applied to the beads are in column two. The fractions of this input pfu recovered in each pH fraction of the abbreviated pH elution protocol (pH 7.0, pH 3.5, and pH 2.0) are in the next three columns. For data obtained using the extended pH elution protocol, the pH 3.5 listing represents the sum of the fractions of input recovered in the pH 6.0, pH 5.5, pH 5.0, pH 4.5, pH 4.0, and pH 3.5 elution samples. The pH 2.0 listing is the sum of the fractions of input obtained from the pH 3.0, pH 2.5, and pH 2.0 elution samples. The total fraction of input pfu obtained throughout the pH elution protocol is in the sixth column. The final column of the table lists the total fraction of input pfu recovered, normalized to the value obtained for MA-BITI-E7-141 phage.

[2] = target: T1, Human Neutrophil Elastase; experiment: estimated for the free domain from display phage binding to and elution from hNE beads
[3] = target: T1, Human Neutrophil Elastase; experiment: pH elution of display phage from hNE beads, extended protocol
Text: as §1

[4] = target: T1, Human Neutrophil Elastase; experiment: display phage on hNE beads, extended pH fractionation
Text: We characterized the binding properties to hNE-beads of MA-BITI and MA-BITI-E7 display phage using the extended pH fractionation procedure described in U.S. Pat. No. 5,223,409.

[5] = target: T1, Human Neutrophil Elastase; experiment: display phage eluted from hNE beads, normalized to MA-EpiNE7 in a concurrent elution
[6] = target: T1, Human Neutrophil Elastase; experiment: inhibition of hNE hydrolysis of a fluorogenic substrate, [hNE] = 8.47 × 10^-10 molar
Description: (§2) Inhibition constants for the proteins reacting with hNE (Kᵢ) were determined using RT measurements of hydrolysis of a fluorogenic substrate (N-methoxysuccinyl-Ala-Ala-Pro-Val-7-amino-4-methylcoumarin, Sigma M-9771) by hNE. […] The reactions were incubated at RT for 30 minutes. At the end of the incubation period, the fluorogenic substrate was added at a concentration of 25 μM and the time course for increase in fluorescence at 470 nm (excitation at 380 nm) due to enzymatic substrate cleavage was recorded using a spectrofluorimeter (Perkin-Elmer 650-15) and strip chart recorder. […] Kᵢ is related to Kₐₚₚₐᵣₑₙₜ by Kᵢ=Kₐₚₚₐᵣₑₙₜ×(1/(1+(S₀/Kₘ))). The correction is small compared to the possible errors in Kₐₚₚₐᵣₑₙₜ. Rates of enzymatic substrate cleavage were determined from the linear slopes of the recorded increases in fluorescence.
(§3) We recorded data used to determine Kᵢ for EPI-HNE-2 and EPI-HNE-3 reacting with hNE. Data obtained as described above are recorded as percent residual activity plotted as a function of added inhibitor. […] From the data, Kᵢ values for EPI-HNE-2 and for EPI-HNE-3 reacting with hNE at RT were calculated to be 4.8 pM and 6.2 pM, respectively.

[7] = target: T1, Human Neutrophil Elastase; experiment: calculated by the filing from koff = KD × kon
Text: […] […] B. Specificity.

[8] = target: T1, Human Neutrophil Elastase; experiment: progressive inhibition of hNE substrate hydrolysis after addition of inhibitor
Description: The kinetic on-rates for the inhibitors reacting with hNE (kₒₙ) were determined from measurements of progressive inhibition of substrate hydrolytic activity by hNE following addition of inhibitor. For these experiments, a known concentration of inhibitor was added to a solution of hNE (0.847 nM) and substrate (25 μM) in 2 ml of reaction buffer in a plastic fluorescence cuvette. The change in fluorescence was recorded continuously following addition of the inhibitor. […] The enzymatic rate at selected times following addition of the inhibitor was determined from the slope of the tangent to the fluorescence time course at that time.
The kinetic constant kₒₙ for EPI-HNE-2 reacting with hNE was determined as follows. EPI-HNE-2 at 1.3 nM was added to buffer containing 0.867 nM hNE (I:E=1.5:1) at time 0.

Human Urine Urokinase = Human Urine Urokinase (human, UniProt P00749); experiment: enzyme inhibition assay; limit on the assumption of less than 10% inhibition at the highest concentration tested
Human Serum Thrombin = Human Serum Thrombin (human, UniProt P00734); experiment: as above
Human Plasma Factor Xa = Human Plasma Factor Xa (human, UniProt P00742); experiment: as above
Human Serum Kallikrein = Human Serum Kallikrein (human, UniProt P03952); experiment: as above
Human Serum Plasmin = Human Serum Plasmin (human, UniProt P00747); experiment: as above
[9] = target: T1, Human Neutrophil Elastase; experiment: enzyme inhibition assay
Description: as §2, §3

[10] = target: Human Pancreatic Chymotrypsin (human, UniProt P17538); experiment: enzyme inhibition assay; said to be probably not specific

B1: MUTP1 display phage (designed binder)
chain: RPDFCQLGYSAGPCIGMFSRYFYNGTSMACETFQYGGCMGNGNNFVTEKDCLQTCRGA
Question: B1 was tested. Which “Fraction of Input recovered at pH2.0” value [1] did it give?
Answer: 0.00012 fraction of input

Question: What about the “Fraction of Input recovered at pH3.5” value [1] of the same binder?
Answer: 0.00092 fraction of input

Question: And the “Fraction of Input recovered at pH7.0” value [1]?
Answer: 0.00018 fraction of input

Question: What about the “Recovery Relative to BITI-E7-141” value [1] of the same binder?
Answer: 0.46 ratio

Question: And the “Recovery, Total fraction of input” value [1]?
Answer: 0.0012 fraction of input

B2: MUTQE display phage (designed binder)
chain: RPDFCQLGYSAGPCVAMFPRYFYNGTSMACETFVYGGCMGNGNNFVTEKDCLQTCRGA
Question: What does the source list for B2?
Answer: Fraction of Input recovered at pH2.0 [1]: 0.00053 fraction of input; Fraction of Input recovered at pH3.5 [1]: 0.0016 fraction of input; Fraction of Input recovered at pH7.0 [1]: 0.00012 fraction of input; Recovery Relative to BITI-E7-141 [1]: 0.85 ratio; Recovery, Total fraction of input [1]: 0.0022 fraction of input; Estimated KD [2]: < 10 pM

B3: MUTT26A display phage (designed binder)
chain: RPDFCQLGYSAGPCVAMFPRYFYNGASMACQTFVYGGCMGNGNNFVTEKDCLQTCRGA
Question: B3 was tested. Which “Fraction of Input recovered at pH2.0” value [3] did it give?
Answer: 0.00033 fraction of input

Question: What about the “Fraction of Input recovered at pH3.5” value [3] of the same binder?
Answer: 0.0019 fraction of input

Question: What about the “Fraction of Input recovered at pH7.0” value [3] of the same binder?
Answer: 0.00025 fraction of input

Question: And the “Recovery Relative to BITI-E7-141” value [3]?
Answer: 0.96 ratio

Question: And the “Recovery, Total fraction of input” value [3]?
Answer: 0.0025 fraction of input

Question: What about the “Estimated KD” value [2] of the same binder?
Answer: < 10 pM

B4: MA-BITI-E7-141 display phage (designed binder)
chain: RPDFCQLGYSAGPCVAMFPRYFYNGTSMACQTFVYGGCMGNGNNFVTEKDCLQTCRGA
Question: How did the “Fraction of Input recovered at pH2.0” value [1] turn out when B4 was run?
Answer: 0.00054 fraction of input

Question: What about the “Fraction of Input recovered at pH3.5” value [1] of the same binder?
Answer: 0.0018 fraction of input

Question: And the “Fraction of Input recovered at pH7.0” value [1]?
Answer: 0.00022 fraction of input

Question: And the “Recovery Relative to BITI-E7-141” value [1]?
Answer: 1 ratio

Question: What about the “Recovery, Total fraction of input” value [1] of the same binder?
Answer: 0.0026 fraction of input

Question: And the “Fraction of Input recovered at pH2.0” value [3]?
Answer: 0.00032 fraction of input

Question: What about the “Fraction of Input recovered at pH3.5” value [3] of the same binder?
Answer: 0.0021 fraction of input

Question: And the “Fraction of Input recovered at pH7.0” value [3]?
Answer: 0.00021 fraction of input

Question: What about the “Recovery Relative to BITI-E7-141” value [3] of the same binder?
Answer: 1 ratio

Question: What about the “Recovery, Total fraction of input” value [3] of the same binder?
Answer: 0.0026 fraction of input

Question: And the “fold increase in total fraction of input eluted, relative to parental MA-BITI-E7” value [4]?
Answer: 10 fold

Question: What about the “Estimated KD” value [2] of the same binder?
Answer: < 10 pM

B5: MA-BITI-E7 display phage (designed binder)
chain: RPDFCQLGYSAGPCVAMFPRYFYNGTSMACETFQYGGCMGNGNNFVTEKDCLQTCRGA
Question: Which “SUM, fraction of input from all pH elution fractions” value [4] does the source give for B5 here?
Answer: 0.00029 fraction of input

Question: And the “SUM, total pfu from all pH elution fractions” value [4]?
Answer: 1.8e+06 pfu

Question: And the “pfu eluted at pH 2.0” value [4]?
Answer: 8700 pfu

Question: And the “pfu eluted at pH 2.5” value [4]?
Answer: 23000 pfu

Question: And the “pfu eluted at pH 3.0” value [4]?
Answer: 89000 pfu

Question: And the “pfu eluted at pH 3.5” value [4]?
Answer: 90000 pfu

Question: And the “pfu eluted at pH 4.0” value [4]?
Answer: 240000 pfu

Question: What about the “pfu eluted at pH 4.5” value [4] of the same binder?
Answer: 380000 pfu

Question: What about the “pfu eluted at pH 5.0” value [4] of the same binder?
Answer: 370000 pfu

Question: And the “pfu eluted at pH 6.0” value [4]?
Answer: 280000 pfu

Question: And the “pfu eluted at pH 7.0” value [4]?
Answer: 280000 pfu

Question: And the “pfu/Input eluted at pH 2.0” value [4]?
Answer: 1.4e-06 fraction of input

Question: What about the “pfu/Input eluted at pH 2.5” value [4] of the same binder?
Answer: 3.8e-06 fraction of input

Question: And the “pfu/Input eluted at pH 3.0” value [4]?
Answer: 1.5e-05 fraction of input

Question: What about the “pfu/Input eluted at pH 3.5” value [4] of the same binder?
Answer: 1.5e-05 fraction of input

Question: And the “pfu/Input eluted at pH 4.0” value [4]?
Answer: 4e-05 fraction of input

Question: What about the “pfu/Input eluted at pH 4.5” value [4] of the same binder?
Answer: 6.3e-05 fraction of input

Question: What about the “pfu/Input eluted at pH 5.0” value [4] of the same binder?
Answer: 6.2e-05 fraction of input

Question: And the “pfu/Input eluted at pH 6.0” value [4]?
Answer: 4.7e-05 fraction of input

Question: And the “pfu/Input eluted at pH 7.0” value [4]?
Answer: 4.7e-05 fraction of input

Question: What about the “Normalized fraction of input (relative to recovered MA-EpiNE7)” value [5] of the same binder?
Answer: 0.13 ratio

B6: EPI-HNE-4 (designed binder)
chain: EACNLPIVRGPCIAFFPRWAFDAVKGKCVLFPYGGCQGNGNKFYSEKECREYCGVP
Question: With B6 as the binder, how does the Kd [6] read?
Answer: 4.6 pM

Question: What about the koff [7] of the same binder?
Answer: 4.9e-05 s⁻¹

Question: And the kon [8]?
Answer: 1.06e+07 M⁻¹ s⁻¹

Question: And the Ki (Human Urine Urokinase)?
Answer: > 90 µM

Question: What about the Ki (Human Serum Thrombin) of the same binder?
Answer: > 90 µM

Question: What about the Ki (Human Plasma Factor Xa) of the same binder?
Answer: > 90 µM

Question: What about the Ki (Human Serum Kallikrein) of the same binder?
Answer: > 90 µM

Question: What about the Ki (Human Serum Plasmin) of the same binder?
Answer: > 90 µM

Question: And the Ki [9]?
Answer: 5 pM

Question: And the Ki [10]?
Answer: ~10 µM
